2 substances from patent US20070016969A1 can be followed below.

The target in this assay is Bovine thrombin (Sigma) (bovine) (UniProt P00735). As to the kind of experiment: cell-based or functional assay.

“commercially available nature hirudin (Sigma) (from UniProt P01050 1-65)” gave an amount at which there is almost no coagulation (plasma coagulation, A405) of 0.16 pmol and an amount needed for the anti-coagulation reaction at the A405 reading of 0.05 of 0.52 pmol.
“hirudin encoded by the full-length DNA fragment Hi (SEQ ID NO: 17), expressed from pE-αLA-Hi in NMuMG mammary gland cells (from UniProt P01050 1-65)” displayed an amount of culture medium at which there is no coagulation (plasma coagulation, A405) of 10 µL; an amount of culture medium needed for the anti-coagulation reaction at the A405 reading of 0.05 of 0.95 µL; an amount of homogeneous extract of mammary gland cells at which there is no coagulation (plasma coagulation, A405) of 0.25 mg; an amount of homogeneous extract of mammary gland cells needed for the anti-coagulation reaction at the A405 reading of 0.05 of 0.056 mg.
